Measured values taken from PMC10842001 (FEBS letters, 2023).
Bridges are numbered along the chain shown (N, C = ends). Where no end group is shown, it is not given here. [ ]: non-standard residue; d: D form. Trp(5-OH) = N[C@@H](Cc1c[nH]c2ccc(O)cc12)C(=O)O; Phe(4-NH2) = Nc1ccc(C[C@H](N)C(=O)O)cc1; βAla = NCCC(=O)O

Tests used:
[1] = target: PSD-95 PDZ3cα protein (residues R309-S422) (UniProt P78352); experiment: SPR
PDZ3cα fragment = settings: cited from earlier work
[2] = target: PSD-95 PDZ3cα protein (residues R309-S422) (UniProt P78352 309-422); experiment: SPR
Sequence of PSD-95 PDZ3cα protein (residues R309-S422) (UniProt P78352 309-422) (P78352 309-422): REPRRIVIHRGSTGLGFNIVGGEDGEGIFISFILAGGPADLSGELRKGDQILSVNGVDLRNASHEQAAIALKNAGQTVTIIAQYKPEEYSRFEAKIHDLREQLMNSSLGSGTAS

Sequence of PSD-95 PDZ3cα protein (residues R309-S422) (UniProt P78352) (P78352 309-422): as above

Molecule | koff [2] [s⁻¹] | kon [2] [M⁻¹ s⁻¹] | Kd [2] [nM] | further results
V8L (peptide 9), SYNGAP peptide with the substitution V8L |  |  |  | Kd [1]: 58.4 nM; koff [1]: 0.00381 s⁻¹
F4H (peptide 11), SYNGAP peptide with the substitution F4H |  |  |  | Kd [1]: 121 nM; koff [1]: 0.0261 s⁻¹; kon [1]: 216000 M⁻¹ s⁻¹
-VQQTRV [SynGAP PBM] |  |  |  | fold higher affinity to the longer PDZ3cα fragment (PDZ3cα fragment; relative to isolated PDZ domains, ref [10], [30]): 15 fold
-YKQTSV [CRIPT linear PBM] |  |  |  | fold higher affinity for PDZ3cα fragment than for the isolated PDZ3 domain (PDZ3cα fragment; ref [31]): 21 fold
V8I (peptide 10), SYNGAP peptide with the substitution V8I |  |  |  | Kd [1]: 101 nM; koff [1]: 0.00294 s⁻¹
CGSFPPWVKKTEV (bridge 10-12; not fully specified (residue 10, bridges)) [Syn3* (peptide 4), active component peptide of Syn3 without the poly-arginine moiety] | 0.0287 | 439000 |  | 
CKNYKKTEV (lactam 6-8 via βAla) [Cyclic peptide derived from CRIPT (peptide 6)] | 0.0291 | 76000 |  | 
GSFPPWVQ [αC binder (peptide 8), fragment of the SYNGAP peptide made up of only αC helix interacting residues] | 0.00592 | 1000 | 11100 | 
RRRRRRGS[Phe(4-NH2)]PPWVQQTRV [F4-NH2F (peptide 12), SYNGAP peptide with ζ-Amino-Phe in place of Phe4] | 0.0104 | 153000 | 67.8 | 
RRRRRRGSFPP[Trp(5-OH)]VQQTRV [W7-OHW (peptide 13), SYNGAP peptide with 5-hydroxy-Trp in place of Trp7] | 0.0106 | 24000 | 446 | 
RRRRRRG[dS]FPPWVQQTRV [D-Ser3 (peptide 14), SYNGAP peptide with d-Ser] | 0.00493 | 633000 | 7.8 | 
RRRRRRGSF[dP]PWVQQTRV [D-Pro4 (peptide 15), SYNGAP peptide with d-Pro at the first proline] | 0.0116 | 1.88e+06 | 6.1 | 
RRRRRRGSFP[dP]WVQQTRV [D-Pro5 (peptide 16), SYNGAP peptide with d-Pro at the second proline] | 0.0444 | 1.83e+06 | 24.3 | 
RRRRRRGSFPPW[dV]QQTRV [D-Val8 (peptide 17), SYNGAP peptide with d-Val] | 0.0459 | 2.19e+06 | 20.9 | 
RRRRRRGSFPPWV[dQ]QTRV [D-Gln9 (peptide 18), SYNGAP peptide with d-Gln] | 0.0182 | 317000 | 57.3 | 
